# Changes are numbered by the printed parent chain.
# B1: 5G8_18A1 (antibody, V domains shown)
# VH: QVELQESGPGLVKPSDTLSLTCTVTGGSISTYYWSWIRQPPGKGLEWIGYIFYTGTTNYNPSLKSRVTISVDASKNQFSLKLNSVTAADTAVYYCARDGSLDYWGQGALVTVSS
# VL: DIQMTQSPSSLSASVGDRVTITCRASQSISNYLNWYQQKPGKAPKLLIFVASLLQSGVPSRFSGSGSGTDFTLTISSLQPEDFATYYCQQSYSTPFTFGPGTKLEIK
# B2: 37E10_15B5 (antibody, V domains shown)
# VH: QVQLVESGGGVVQPGRSLRLSCAASGFTFRSHGMHWVRQAPGKGLEWVAVIWYDGSSEYYADSVKGRFTISRDNSKNTLYLQMNSLRAEDTAVYYCARENVYGSGWFFDYWGQGTLVTVSS
# VL: EIVMTQSPATLSVSPGERASLSCRASQSVGSNLAWYQQRPGQAPRLLIFGASTRATGIPARFSGSRSGTEFTLTISSLQSEDFALYYCQQYNNWPPWTFGQGTKLEIK
# notes: also called BFB759
# B3: 36A10_21B6 (antibody, V domains shown)
# VH: QGQVVESGGGVVQPGRSLRLSCAASGFTFSSYTLHWVRQAPGKGLEWVAVIWYDGSNKYYVDSVKGRFTISRDNSKNTLYLQMNSLRAEDTAVYYCAREYGSGSYYNVYYGMDVWGQGTTVTLSS
# VL: DIVMTQSPLSLPVTPGEPASISCRSSQSLLHSNGYNYLDWYLQKPGQSPHLLIYLASNRASGVPDRFSGSGSGTDFTLKISRVEAEDVGFYYCMQTLQIPLTFGGGTKVEIK
# B4: 5D12_18A4 (antibody, V domains shown)
# VH: QVQLQESGPGLVKPLGTLSLTCAVSGGSISNSNWWSWVRQPPGKGLEWIGEIYHSGSTNYNPSLKSRVTIALDWSKNQFSLQLRSVTAADTAVYYCARYGSGPFGGDCWGQGTLVTVSS
# VL: DIQLTQSPSFLSASVGDRVTISCRASQGISSYLAWYQQKPGKAPKLLIYAASTLQGGVPSRFSGSGSGTTFTLTISSLQPEDFATYYCQQLNTYPFTFGPGTKLEIK
# notes: Recombinant human antibody
# B5: 37D11_21C2 (antibody, V domains shown)
# VH: QVQIKESGPGLVKPSETLSLTCAVSGFSFSSGYYWGWIRQPPGKGLEWLGSFFHNGNTYYNPSLRSRVTISVDTSKNHFSLKLTSVTAADTAVYYCAGFGDLPHYHYYVMDVWGQGTTVTVSS
# VL: EIVLTQSPATLSLSPGERATLSCRASQSVSSYLAWYQQKPGQAPRLLIYDASNRAIGIPARFSGSGSGTDFTLTISSLEPEDFAVYYCQQRSNWPPYTFGQGTKLEIK
# B6: 10C8_15A1 (antibody, V domains shown)
# VH: QVQLVESGGGVVQPGRSLRISCAASGFTFRSYGMHWVRQAPGKGLEWVAIIWHDESYKYYVDSVKGRFTISRDNSKNTLYLQMNSLRAEDTAVYYCARGDYYGSGSYYDAFDIWGQGTMVTVSS
# VL: DIQMTQSPSSLSASVGDRVIITCRASQGISNYLAWFQQKPGKCPNLLIYAASTLRSGVPSRFSGSGSGTDFTLTISSLQPEDVATYYCQKYNSAPYTFGQGTKVEIK
# B7: 39G1_21C4 (antibody, V domains shown)
# VH: QVQLQESGPGLVKPSETLSLTCAVSGYSASGVYYWGWIRQPPGKGLEWIGNIYHSGSTYYNPSLERRVSISLDTSKNHFSLRLNFVTAADTAVYYCARDRFDAFDIWGQGTMVTVSS
# VL: EIVMTQSPATLSVSPGERATLSCRASQSINNILAWYQQKPGQAPRLLIYGASTRATGIPARFSGSGSGTEFTLTISSLQSEDFAVYYCQQYNNWPLTFGGGTKVEIK
# B8: 38G11_28A2 (antibody, V domains shown)
# VH: EVQLVESGGGLVQPGGSLRLSCAASGFTFSSYWMSWVRQAPGKGLEWVANIKQDGSEKHYVDSVKGRFTISRDNAKNSLYLQMNSLRAEDTAVYYCAREGYFGSGYFDYWGQGTLVTVSS
# VL: B4 VL with S22T, G56S, T70E, L91Y, N92S, T93F, P95S, F96H, P100Q
# notes: Recombinant human antibody
# B9: 39A9_28A4 (antibody, V domains shown)
# VH: QVQLVESGGGVVQPGRSLRLSCAASGFTLSGYGMHWVRQAPGKGLEWVAVIWYDGSNKYYADSVKGRFTISRDNSKNMLFLQMNSLRAEDTAVYYCVRENGFGSGWFFDYWGQGNLVTVSS
# VL: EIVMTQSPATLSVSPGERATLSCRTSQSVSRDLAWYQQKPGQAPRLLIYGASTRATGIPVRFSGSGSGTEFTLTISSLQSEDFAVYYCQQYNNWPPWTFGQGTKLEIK
# notes: Recombinant human antibody
# B10: 33H2_21B1 (antibody, V domains shown)
# VH: B8 VH with L4V, A24T, S30R, S35T, K58R, N77T, N84S, V93M, F102Y
# VL: DIQMTQSPSTLSASVGDRVIITCRASQSISRGLAWYQQKPGKAPKLLIYKASNLESGVPSRFSGSGSGTEFTLTISSLQPDDFAAYYCQQYSYYSHTFGQGTKVEIK
# notes: Recombinant human antibody
# B11: 36A12_21C1 (antibody, V domains shown)
# VH: B8 VH with F29L, S31F, S35T, S56N, H59N, R72K, N77K, L79V, Y80F
# VL: B10 VL with I20T, S30N, R31S, G32W, N53T, A85P, Q90H, S92N, Y93S, S95P
# notes: Recombinant human antibody
# B12: 40C3_22B6 (antibody, V domains shown)
# VH: B8 VH with F29L, S31F, S35T, S56N, H59N, Y60F, N77K, L79V, Y80F
# VL: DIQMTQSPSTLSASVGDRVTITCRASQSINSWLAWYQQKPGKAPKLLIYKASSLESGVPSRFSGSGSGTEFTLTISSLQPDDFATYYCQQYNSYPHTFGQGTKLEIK
# notes: Recombinant human antibody
# B13: 34C11_21B2 (antibody, V domains shown)
# VH: B8 VH with L4V, S30R, K58R, N77T, N84S
# VL: B10 VL with V104L
# notes: Recombinant human antibody
# B14: 42D10_28A5 (antibody, V domains shown)
# VH: QVQPKESGPGVVKPSETLSLTCAVSGFPISRGYYWGWIRQPPGKGLEWIGNIFHSGTTYYNPSLKSRVTISVDTSKNQISLKLTSVTAADTAVYYCVGFGDLPHYQYYVMDIWGQGTTVTVSS
# VL: B5 VL with I56T
# notes: Recombinant human antibody
# B15: 33E9_21A6 (antibody, V domains shown)
# VH: B2 VH with V2L, P14F, R30S
# VL: B2 VL with R39K
# notes: Recombinant human antibody
# B16: 32D4_21D6 (antibody, V domains shown)
# VH: B2 VH with V2L, R30S, H32Y
# VL: B2 VL with R39K, L105V
# notes: Recombinant human antibody
# B17: 31F9_21A1 (antibody, V domains shown)
# VH: B2 VH with V11M, A23T, R30S, Y53F, S57N, A61V
# VL: B2 VL with R39K, L105V
# notes: Recombinant human antibody
# B18: 35D11_22A1 (antibody, V domains shown)
# VH: B2 VH with V2L, R30S, H32Y, Y80F, E89D
# VL: B2 VL with R39K, N92D
# notes: Recombinant human antibody
# B19: 34H8_21B4 (antibody, V domains shown)
# VH: QVQLQESGPGLVKPSETLSLTCAVSGYSASGLYYWAWIRQPPGKGLEWIGNIYHSGRTYYNPSLESRVSISLDTSKHQVSLKLKSVTYADTAVYFCARDRFDGFDIWGQGTMVTVSS
# VL: B7 VL with S28T, V104L
# notes: Recombinant human antibody
# Target: T1, human IL1RAP on IL1RAP positive human cell lines (EOL-1, Karpas 299; HEK-Blue reporter cells) (human, UniProt Q9NPH3 21-570)
# Assay: cell-based or functional assay
"EC50, inhibition of signalling by 0.5 ng/ml IL-1a (IL-1alpha) in the HEK-Blue IL-1 reporter assay (Abs. 620 nM)","EC50, inhibition of signalling by 0.5 ng/ml IL-1a (IL-1alpha) in the HEK-Blue IL-1 reporter assay (Abs. 620 nm); row printed as 36A10_21C2",Binder
0.83 nM,,B1
0.19 nM,,B2
,0.66 nM,B3

# Target: T2, rat IL1RAP (Met1-Val570 plus Myc-DDK) on transfected 293 cells (Rattus norvegicus, UniProt Q63621 21-570)
# T2 construct: whole, on cells; also called RR213032
# T2 sequence (Q63621 21-570): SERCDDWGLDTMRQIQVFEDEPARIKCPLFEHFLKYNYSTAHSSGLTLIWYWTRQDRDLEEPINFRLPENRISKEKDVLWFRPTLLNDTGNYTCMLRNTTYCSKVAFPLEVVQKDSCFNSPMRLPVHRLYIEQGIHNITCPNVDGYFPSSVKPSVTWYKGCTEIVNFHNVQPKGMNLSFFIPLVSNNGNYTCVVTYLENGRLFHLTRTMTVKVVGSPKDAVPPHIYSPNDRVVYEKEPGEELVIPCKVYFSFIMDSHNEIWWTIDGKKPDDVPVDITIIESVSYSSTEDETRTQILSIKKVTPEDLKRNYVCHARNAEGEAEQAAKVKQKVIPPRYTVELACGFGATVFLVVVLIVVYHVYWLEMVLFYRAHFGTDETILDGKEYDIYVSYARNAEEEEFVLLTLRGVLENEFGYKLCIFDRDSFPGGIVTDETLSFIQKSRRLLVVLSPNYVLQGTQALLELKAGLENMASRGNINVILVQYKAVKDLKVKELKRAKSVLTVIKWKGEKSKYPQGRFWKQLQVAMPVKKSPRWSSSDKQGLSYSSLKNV
# Assay: flow cytometry on 293 cells expressing rat IL1RAP (293-puro-ratIL1RAP) vs 293T-puro [cont.]
# Protocol: (§1) Staining for flow cytometry was performed in 1× cold PBS with 0.5% BSA. Primary antibodies (1 ug/ml) were incubated with live cells on ice for 30 minutes, after a brief wash, cells were incubated with Alexa Fluro® 488-conjugated anti-human IgG secondary antibody @1:1000 (709-546-149, Jackson ImmunoResearch). Acquisition of the data was performed on a MACSQuant® Flow Cytometers (Miltenyi Biotec) and analyzed with FlowJo software.
row,binding result,Binder
1,no binding (tested: 1 ug/ml),B1
2,no binding (tested: 1 ug/ml),B4
3,no binding (tested: 1 ug/ml),B5
4,no binding (tested: 1 ug/ml),B2
5,no binding (tested: 1 ug/ml),B3
6,no binding (tested: 1 ug/ml),B6
7,no binding (tested: 1 ug/ml),B7

# Target: T1, human IL1RAP on IL1RAP positive human …
# Assay: cell-based or functional assay
# Remark: another data set of the same source
"EC50, inhibition of signalling by 0.5 ng/ml IL-1beta in HEK-Blue IL-1beta reporter cells (Abs. 620 nM)","EC50, inhibition of signalling by 0.5 ng/ml IL-1beta in HEK-Blue IL-1beta reporter cells (Abs. 620 nm); row printed as 36A10_21C2",Binder
0.58 nM,,B1
0.15 nM,,B2
,0.29 nM,B3

# Target: T1, human IL1RAP on IL1RAP positive human …
# Assay: cell-based or functional assay
# Remark: another data set of the same source
"EC50 against IL-1alpha signaling, IL-1 reporter assay","EC50 against IL-1beta signaling, IL-1 reporter assay",Binder
< 1 nM,< 1 nM,B2

# Target: T1, human IL1RAP on IL1RAP positive human …
# Assay: cell-based or functional assay
# Remark: another data set of the same source
"EC50, inhibition of signalling by 0.5 ng/ml IL-33 in HEK-Blue IL-33 reporter cells (Abs. 620 nm); the curve levels off at about 0.4, not at 0","EC50, inhibition of signalling by 0.5 ng/ml IL-33 in HEK-Blue IL-33 reporter cells (Abs. 620 nM)",Binder
0.32 nM,,B2
,1.76 nM,B3

# Target: T3, huIL1RAP ECD recombinant protein (human, UniProt Q9NPH3 21-367)
# T3 construct: also called recombinant human IL1RAP-ECD; recombinant human IL1RAP; not shown: C-terminal histidine tag for purification
# Assay: Octet BLI, antibody on Protein A biosensor, recombinant huIL1RAP ECD
# Protocol: Affinity: The affinity of antibodies to various recombinant IL1RAP protein was determined on an Octet Red™ instrument. After loading reagents into a 96-well plate, the Octet Red™ with Protein A-conjugated biosensors was programmed as follows: 30 seconds for baseline #1; 120 seconds to immobilize the antibody; 30 seconds for baseline #2; 300 seconds for association of antibody to recombinant IL1RAP; and 300-600 seconds for dissociation of recombinant IL1RAP from the antibody.
row,Kd,Binder
1,0.4 nM,B1
2,19 nM,B4
3,29 nM,B8
4,3 nM,B9
5,7 nM,B10
6,24 nM,B11
7,23 nM,B12
8,0.2 nM,B13
9,13 nM,B5
10,7 nM,B14
11,0.3 nM,B2
12,2 nM,B15
13,3 nM,B16
14,2 nM,B17
15,3 nM,B18
16,0.4 nM,B3
17,30 nM,B6
18,1.6 nM,B7
19,5 nM,B19

# Target: T4, mouse IL1RAP (Met1-Val570 plus Myc-DDK) on transfected 293 cells (Mus musculus, UniProt Q61730 21-570)
# T4 construct: whole, on cells; also called MR223729
# T4 sequence (Q61730 21-570): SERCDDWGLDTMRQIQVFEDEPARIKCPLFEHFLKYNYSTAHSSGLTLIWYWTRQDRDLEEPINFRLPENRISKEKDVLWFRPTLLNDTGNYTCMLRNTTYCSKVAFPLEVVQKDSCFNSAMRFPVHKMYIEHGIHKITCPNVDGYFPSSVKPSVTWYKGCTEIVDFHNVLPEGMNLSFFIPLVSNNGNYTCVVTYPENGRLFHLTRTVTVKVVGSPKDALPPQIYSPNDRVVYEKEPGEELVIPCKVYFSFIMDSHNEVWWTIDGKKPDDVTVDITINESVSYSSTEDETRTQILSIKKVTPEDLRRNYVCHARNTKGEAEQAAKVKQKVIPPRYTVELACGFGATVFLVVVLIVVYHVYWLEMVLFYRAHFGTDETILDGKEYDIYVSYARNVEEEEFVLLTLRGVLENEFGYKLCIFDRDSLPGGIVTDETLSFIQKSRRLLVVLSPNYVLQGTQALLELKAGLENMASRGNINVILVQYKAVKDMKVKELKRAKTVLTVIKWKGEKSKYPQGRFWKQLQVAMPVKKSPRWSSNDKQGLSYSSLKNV
# Assay: flow cytometry on 293 cells expressing mouse IL1RAP (293-puro-mouseIL1RAP) vs 293T-puro [cont.]
# Protocol: as §1
row,binding result,Binder
1,no binding (tested: 1 ug/ml),B1
2,no binding (tested: 1 ug/ml),B5
3,no binding (tested: 1 ug/ml),B2
4,no binding (tested: 1 ug/ml),B3
5,no binding (tested: 1 ug/ml),B6
